Reference: the RNAGym collection of RNA variant scans (doi:10.7554/elife.90254)

B1: OR4K15 (parent)
chain: GUUAACGGUCAUAGGCCAUGGAAACUAGGAGCACCAUUUCGCUGCCAGUGAAGAAAUGAACAAAGAAAAUCUGGGCCAGGCAGGCAUCAAAAGAAAUAGUCUUGCGCUCAACCAGAAAGUCUGUAAUCAUUUUAAGGGUA

Variants of: B1
Assay: self-cleavage, relative activity (ratio to wild type); higher = more cleavage; in vitro, sequencing; the parent is a self-cleaving ribozyme

Variant | self-cleavage
C46U U122A | 1.22
A47U A67G | 1.23
A47G A134G | 0.84
A47G U131C | 0.71
A47G U131A | 0.62
C45U A126G | 0.97
C45G U131C | 0.41
A47G A82G | 0.51
A47G A82U | 0.07
A47G C105A | 0.07
A47C U108C | 0.02
A47G G115U | 0.09
C45A U131A | 1.29
C46U A117G | 2.01
C46A A118U | 0.26
A47G A114G | 0.24
A47G U120A | 1.21
A47U A111G | 0.04
A47G A52G | 0.87
A47G A52U | 1.73
A47G A52C | 0.5
A47U A118G | 0.76
A47G A67G | 1.12
C45G A116G | 0.77

Variant | self-cleavage
C46U A62U | 1.83
A47G U139A | 1.4
A47G U139C | 1.45
C46U U130C | 1.4
A47C A68G | 0.55
A47G G74A | 0.21
C45A U127C | 0.26
A47G U87C | 0.42
A47G A111G | 0.02
C46U C85U | 1.36
C46U A51U | 0.64
A47G A98U | 0.85
A47G A98G | 0.3
C45A A134G | 1.72
A47G U108C | 0.01
A47G U130C | 0.33
A47G U100G | 2.14
A47U A116C | 0.05
A47G A129G | 0.64
C45U A114U | 0.13
C45U A114G | 0.75
C45G A55G | 1.73
A47G G138A | 1.31
A47C U120A | 2.24

Variant | self-cleavage
A47C U120C | 1
C45U A129G | 1.16
A47U A95G | 1.25
C46U A86G | 1.41
A47G A60G | 0.74
A47U A62U | 1.36
C46U A89G | 2.15
A47G A92G | 1.02
A47C C105U | 0.32
A47C U87C | 1.76
A47U A82G | 0.21
A47U A117C | 0.24
A47U A126C | 0.72
A47C U70C | 0.23
C45U A56C | 0.67
C46U U139C | 2.16
C46U U139A | 1.41
C45A G99A | 0.92
A47G A51G | 0.9
A47G C112U | 0.01
C45U U108A | 0.01
C46U A56G | 1.12
A47G A59G | 0.86
A47G A64G | 1.17

Variant | self-cleavage
A47U A94G | 1.22
A47U A59U | 0.57
A47G A89U | 0.42
A47G A66U | 1.11
A47G A66G | 0.23
A47U A98U | 1.79
C46U A114G | 0.49
A47G A91G | 0.69
C46A A91G | 0.95
A47G A54G | 1.22
A47G A54U | 0.97
A47G U127C | 0.59
A47G U127A | 1.33
C45U U120C | 1.06
C46U A116G | 1.37
A47U A66U | 0.99
C46A A52G | 1.25
C45G | 1.37
C45U | 1.72
C45A | 1.6
C46U U127C | 0.86
G44U A95G | 1.73
A47U A69G | 0.73
C45U U122G | 2.74

Variant | self-cleavage
A47G A63U | 1.03
A47C U49C | 1.24
A47C U49G | 1.78
C46U A67U | 2.2
A47G A68G | 1.23
A47G A68U | 1.17
C45A A98U | 1.6
C46A A60U | 1.27
C46U A69U | 1.84
A47C A92U | 0.74
C45U A68C | 1.95
A47U A55G | 0.6
A47G U102C | 1.25
A47G U102A | 0.78
A47G U102G | 0.41
C46U G138A | 1.91
C46U U87C | 1.68
C46U U72C | 0.21
C45U A86U | 1.17
A47C A67G | 0.84
A47G A94G | 0.82
A47G U132C | 0.47
A47G A90U | 0.8
C46U A59G | 1.81

Variant | self-cleavage
A47G A135G | 1.27
C46A U97A | 1.43
A47U A78G | 0.17
A47U A78C | 0.08
A47U A114U | 0.06
C46U | 1.54
C46A | 1.44
C46G | 1.46
A47U A54G | 0.67
A47G A86U | 2.98
A47G G58A | 0.52
A47G G58C | 0.97
A47G A118G | 0.41
A47U A90G | 0.72
A47G A62G | 0.63
A47C A129G | 0.74
A47G A110U | 1.15
C46U A129G | 1.52
A47C A116G | 1.3
A47G C85U | 0.65
A47G U72C | 0.35
A47G U72A | 0.09
C45U A140G | 1.42
C45G U102C | 1.48

Variant | self-cleavage
A47C | 0.88
A47G | 0.96
A47U | 0.72
A47G A78U | 0.14
A47G A78G | 0.26
A47U A68G | 0.48
A47G A116C | 0.03
A47G A116G | 0.35
C45U A51G | 1.58
C45G A51G | 1.57
A47G A125G | 0.28
A47G A125U | 1.01
C45U U103C | 0.54
C45U A60G | 1.29
C45U G119A | 1.99
A47G A96G | 1.18
C45A A129G | 0.87
A47G U97C | 1.08
A47G U97A | 1.21
A47C G74U | 0.15
A47C G74A | 0.17
A47U A60G | 0.42
C45U U49G | 1.93
